# Data taken from the RNAGym collection of RNA variant scans (doi:10.1093/molbev/msab373).
# B1: Azoarcus group I ribozyme (parent)
# chain: GUGCCUUGCGCCGGGAAACCACGCAAGGGAUGGUGUCAAAUUCGGCGAAACCUAAGCGCCCGCCCGGGCGUAUGGCAACGCCGAGCCAAGCUUCGGCGCCUGCGCCGAUGAAGGUGUAGAGACUAGACGGCACCCACCUAAGGCAAACGCUAUGGUGAAGGCAUAGUCCAGGGAGUGGCGAAAGUCACACAAACCGG
# Variants of: B1
# Test: reverse-splicing fitness (ratio to wild type); higher = more active; in vitro selection; Mg2+ level not given
# Summary of the method: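 An in vitro group I ribozyme library with randomized positions was T7-transcribed and gel-purified. In triplicate, 10 pmol RNA in EPPS pH 7.5 was reacted with 50 pmoles of a 30-nt RNA substrate for 1 h at 37 °C across several added MgCl2 levels (1–48 mM), then stopped with EDTA. Products were reverse transcribed from a substrate-complementary primer, PCR-amplified and sequenced (HiSeq 4000). Fitness is a variant's read proportion after selection over that before, normalised to wild type.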
row,Variant,reverse-splicing fitness
1,C82U A111C A120G A145G C169U U176A,0.0161
2,C82U A111C A120G A145G C169U U176C,0.0125
3,C82U A111C A120G A145G C169U U176G,0.00411
4,C82U A111C A120G A145U C150U,0.0111
5,C82U A111C A120G A145U C150A,0.00775
6,C82U A111C A120G A145U C150G,0.00658
7,C82U A111C A120G C150A C169G U176A,0.0168
8,C82U A111C A120G C150A C169G U176G,0.00479
9,C82U A111C A120G C150A C169G U176C,0.0202
10,C82U A111C A120U A145C C150U C169A U176G,0.00235
11,C82U A111C A120U A145C C150U C169A U176A,0.00213
12,C82U A111C A120U A145C C150U C169A U176C,0.0025
13,C82U A111C A120U A145G C169U U176C,0.00342
14,C82U A111C A120U A145G C169U U176A,0.00527
15,C82U A111C A120U A145G C169U U176G,0.00206
16,C82U A111C A120U A145G C150A C169A U176G,0.00278
17,C82U A111C A120U A145G C150A C169A U176C,0.00409
18,C82U A111C A120U A145G C150A C169A U176A,0.00664
19,C82U A111C A120G A145G C169A U176A,0.0193
20,C82U A111C A120G A145G C169A U176G,0.00456
21,C82U A111C A120G A145G C169A U176C,0.0272

row,Variant,reverse-splicing fitness
1,C82U A111C A120G A145G C150G,0.00776
2,C82U A111C A120G A145G C150U,0.0115
3,C82U A111C A120G C150A C169A U176G,0.00529
4,C82U A111C A120G C150A C169A U176A,0.0163
5,C82U A111C A120G C150A C169A U176C,0.0186
6,C82U A111C A120G A145U C150U C169G,0.00846
7,C82U A111C A120G A145U C150U C169U,0.00803
8,C82U A111C A120G A145U C150U C169A,0.00896
9,C82U A111C A120U A145G C150A U176G,0.00319
10,C82U A111C A120U A145G C150A U176C,0.00717
11,C82U A111C A120U A145G C150A U176A,0.00653
12,C82U A111C A120U A145U C150A C169A U176G,0.00255
13,C82U A111C A120U A145U C150A C169A U176A,0.00217
14,C82U A111C A120U A145U C150A C169A U176C,0.00253
15,C82U A111C A120U A145C C150G C169G,0.00351
16,C82U A111C A120U A145C C150G C169A,0.00271
17,C82U A111C A120U A145C C150G C169U,0.00396
18,C82U A111C A120U A145U C150G C169A,0.00391
19,C82U A111C A120U A145U C150G C169G,0.00306
20,C82U A111C A120G C150G C169A U176C,0.00939
21,C82U A111C A120G C150G C169A U176A,0.0104

row,Variant,reverse-splicing fitness
1,C82U A111C A120G C150G C169A U176G,0.0058
2,C82U A111C A120U A145G C150G U176C,0.00806
3,C82U A111C A120U A145G C150G U176A,0.00648
4,C82U A111C A120U A145G C150G U176G,0.00395
5,C82U A111C A120G A145U C150U C169A U176A,0.0111
6,C82U A111C A120G A145U C150U C169A U176G,0.00451
7,C82U A111C A120G A145U C150U C169A U176C,0.00758
8,C82U A111C A120G A145G C150U C169A,0.0103
9,C82U A111C A120G A145G C150U C169G,0.00984
10,C82U A111C A120G A145G C150U C169U,0.00958
11,C82U A111C A120U A145C C150A C169U,0.00301
12,C82U A111C A120U A145C C150A C169A,0.00255
13,C82U A111C A120U A145C C150A C169G,0.00233
14,C82U A111C A120G C150G U176A,0.00789
15,C82U A111C A120G C150G U176G,0.00294
16,C82U A111C A120G C150G U176C,0.013
17,C82U A111C A120U A145C U176C,0.00705
18,C82U A111C A120U A145C U176G,0.00296
19,C82U A111C A120U A145C U176A,0.00655
20,C82U A111C A120G A145G C150U C169G U176C,0.0159
21,C82U A111C A120G A145G C150U C169G U176A,0.0112

row,Variant,reverse-splicing fitness
1,C82U A111C A120G A145G C150U C169G U176G,0.00467
2,C82U A111C A120G A145U C150G C169G U176G,0.00386
3,C82U A111C A120G A145U C150G C169G U176C,0.00446
4,C82U A111C A120G A145U C150G C169G U176A,0.0063
5,C82U A111C A120G A145G C150G C169A U176G,0.00775
6,C82U A111C A120G A145G C150G C169A U176A,0.0117
7,C82U A111C A120G A145G C150G C169A U176C,0.011
8,C82U A111C A120U A145C C150U U176A,0.00424
9,C82U A111C A120U A145C C150U U176G,0.0029
10,C82U A111C A120U A145C C150U U176C,0.00591
11,C82U A111C A120U A145U C150A C169G U176G,0.00205
12,C82U A111C A120U A145U C150A C169G U176A,0.00239
13,C82U A111C A120U A145U C150A C169G U176C,0.003
14,C82U A111C A120U A145G C150A C169G,0.00517
15,C82U A111C A120U A145G C150A C169U,0.0043
16,C82U A111C A120U A145G C150A C169A,0.00616
17,C82U A111C A120U A145G C150G C169A U176C,0.00788
18,C82U A111C A120U A145G C150G C169A U176A,0.0114
19,C82U A111C A120U A145G C150G C169A U176G,0.00495
20,C82U A111C A120G A145U,0.0159
